Measured values: publication PMC3438196

Target: codon optimized Vif SLQ144-146AAA MAPPIT prey (pMG2-VifoptSLQ), P12504
Assay: MAPPIT
Settings: chain shown with the change

Binder	percent of parent
Apobec3G-GFP MAPPIT bait (pCEL-Apobec3G-GFP), Q9HC16 Y59N (protein) MKPHFRNTVERMYRDTFSYNFYNRPILSRRNTVWLCYEVKTKGPSRPPLDAKIFRGQVNSELKYHPEMRFFHWFSKWRKLHRDQEYEVTWYISWSPCTKCTRDMATFLAEDPKVTLTIFVARLYYFWDPDYQEALRSLCQKRDGPRATMKIMNYDEFQHCWSKFVYSQRELFEPWNNLPKYYILLHIMLGEILRHSMDPPTFTFNFNNEPWVRGRHETYLCYEVERMHNDTWVLLNQRRGFLCNQAPHKHGFLEGRHAELCFLDVIPFWKLDLDQDYRVTCFTSWSPCFSCAQEMAKFISKNKHVSLCIFTARIYDDQGRCQEGLRTLAEAGAKISIMTYSEFKHCWDTFVDHQGCPFQPWDGLDEHSQDLSGRLRAILQNQEN	18 % of WT
Apobec3G-GFP MAPPIT bait (pCEL-Apobec3G-GFP), Q9HC16 W94R (protein) MKPHFRNTVERMYRDTFSYNFYNRPILSRRNTVWLCYEVKTKGPSRPPLDAKIFRGQVYSELKYHPEMRFFHWFSKWRKLHRDQEYEVTWYISRSPCTKCTRDMATFLAEDPKVTLTIFVARLYYFWDPDYQEALRSLCQKRDGPRATMKIMNYDEFQHCWSKFVYSQRELFEPWNNLPKYYILLHIMLGEILRHSMDPPTFTFNFNNEPWVRGRHETYLCYEVERMHNDTWVLLNQRRGFLCNQAPHKHGFLEGRHAELCFLDVIPFWKLDLDQDYRVTCFTSWSPCFSCAQEMAKFISKNKHVSLCIFTARIYDDQGRCQEGLRTLAEAGAKISIMTYSEFKHCWDTFVDHQGCPFQPWDGLDEHSQDLSGRLRAILQNQEN	27 % of WT
Apobec3G-GFP MAPPIT bait (pCEL-Apobec3G-GFP), Q9HC16 R136S (protein) MKPHFRNTVERMYRDTFSYNFYNRPILSRRNTVWLCYEVKTKGPSRPPLDAKIFRGQVYSELKYHPEMRFFHWFSKWRKLHRDQEYEVTWYISWSPCTKCTRDMATFLAEDPKVTLTIFVARLYYFWDPDYQEALSSLCQKRDGPRATMKIMNYDEFQHCWSKFVYSQRELFEPWNNLPKYYILLHIMLGEILRHSMDPPTFTFNFNNEPWVRGRHETYLCYEVERMHNDTWVLLNQRRGFLCNQAPHKHGFLEGRHAELCFLDVIPFWKLDLDQDYRVTCFTSWSPCFSCAQEMAKFISKNKHVSLCIFTARIYDDQGRCQEGLRTLAEAGAKISIMTYSEFKHCWDTFVDHQGCPFQPWDGLDEHSQDLSGRLRAILQNQEN	53 % of WT
Apobec3G-GFP MAPPIT bait (pCEL-Apobec3G-GFP), Q9HC16 W127R (protein) MKPHFRNTVERMYRDTFSYNFYNRPILSRRNTVWLCYEVKTKGPSRPPLDAKIFRGQVYSELKYHPEMRFFHWFSKWRKLHRDQEYEVTWYISWSPCTKCTRDMATFLAEDPKVTLTIFVARLYYFRDPDYQEALRSLCQKRDGPRATMKIMNYDEFQHCWSKFVYSQRELFEPWNNLPKYYILLHIMLGEILRHSMDPPTFTFNFNNEPWVRGRHETYLCYEVERMHNDTWVLLNQRRGFLCNQAPHKHGFLEGRHAELCFLDVIPFWKLDLDQDYRVTCFTSWSPCFSCAQEMAKFISKNKHVSLCIFTARIYDDQGRCQEGLRTLAEAGAKISIMTYSEFKHCWDTFVDHQGCPFQPWDGLDEHSQDLSGRLRAILQNQEN	16 % of WT
Apobec3G-GFP MAPPIT bait (pCEL-Apobec3G-GFP), Q9HC16 L27R (protein) MKPHFRNTVERMYRDTFSYNFYNRPIRSRRNTVWLCYEVKTKGPSRPPLDAKIFRGQVYSELKYHPEMRFFHWFSKWRKLHRDQEYEVTWYISWSPCTKCTRDMATFLAEDPKVTLTIFVARLYYFWDPDYQEALRSLCQKRDGPRATMKIMNYDEFQHCWSKFVYSQRELFEPWNNLPKYYILLHIMLGEILRHSMDPPTFTFNFNNEPWVRGRHETYLCYEVERMHNDTWVLLNQRRGFLCNQAPHKHGFLEGRHAELCFLDVIPFWKLDLDQDYRVTCFTSWSPCFSCAQEMAKFISKNKHVSLCIFTARIYDDQGRCQEGLRTLAEAGAKISIMTYSEFKHCWDTFVDHQGCPFQPWDGLDEHSQDLSGRLRAILQNQEN	26 % of WT
Apobec3G-GFP MAPPIT bait (pCEL-Apobec3G-GFP), Q9HC16 D130Y (protein) MKPHFRNTVERMYRDTFSYNFYNRPILSRRNTVWLCYEVKTKGPSRPPLDAKIFRGQVYSELKYHPEMRFFHWFSKWRKLHRDQEYEVTWYISWSPCTKCTRDMATFLAEDPKVTLTIFVARLYYFWDPYYQEALRSLCQKRDGPRATMKIMNYDEFQHCWSKFVYSQRELFEPWNNLPKYYILLHIMLGEILRHSMDPPTFTFNFNNEPWVRGRHETYLCYEVERMHNDTWVLLNQRRGFLCNQAPHKHGFLEGRHAELCFLDVIPFWKLDLDQDYRVTCFTSWSPCFSCAQEMAKFISKNKHVSLCIFTARIYDDQGRCQEGLRTLAEAGAKISIMTYSEFKHCWDTFVDHQGCPFQPWDGLDEHSQDLSGRLRAILQNQEN	43 % of WT
Apobec3G-GFP MAPPIT bait (pCEL-Apobec3G-GFP), Q9HC16 W175R (protein) MKPHFRNTVERMYRDTFSYNFYNRPILSRRNTVWLCYEVKTKGPSRPPLDAKIFRGQVYSELKYHPEMRFFHWFSKWRKLHRDQEYEVTWYISWSPCTKCTRDMATFLAEDPKVTLTIFVARLYYFWDPDYQEALRSLCQKRDGPRATMKIMNYDEFQHCWSKFVYSQRELFEPRNNLPKYYILLHIMLGEILRHSMDPPTFTFNFNNEPWVRGRHETYLCYEVERMHNDTWVLLNQRRGFLCNQAPHKHGFLEGRHAELCFLDVIPFWKLDLDQDYRVTCFTSWSPCFSCAQEMAKFISKNKHVSLCIFTARIYDDQGRCQEGLRTLAEAGAKISIMTYSEFKHCWDTFVDHQGCPFQPWDGLDEHSQDLSGRLRAILQNQEN	20 % of WT
Apobec3G-GFP MAPPIT bait (pCEL-Apobec3G-GFP), Q9HC16 V265M (protein) MKPHFRNTVERMYRDTFSYNFYNRPILSRRNTVWLCYEVKTKGPSRPPLDAKIFRGQVYSELKYHPEMRFFHWFSKWRKLHRDQEYEVTWYISWSPCTKCTRDMATFLAEDPKVTLTIFVARLYYFWDPDYQEALRSLCQKRDGPRATMKIMNYDEFQHCWSKFVYSQRELFEPWNNLPKYYILLHIMLGEILRHSMDPPTFTFNFNNEPWVRGRHETYLCYEVERMHNDTWVLLNQRRGFLCNQAPHKHGFLEGRHAELCFLDMIPFWKLDLDQDYRVTCFTSWSPCFSCAQEMAKFISKNKHVSLCIFTARIYDDQGRCQEGLRTLAEAGAKISIMTYSEFKHCWDTFVDHQGCPFQPWDGLDEHSQDLSGRLRAILQNQEN	92 % of WT
Apobec3G-GFP MAPPIT bait (pCEL-Apobec3G-GFP), Q9HC16 F157I (protein) MKPHFRNTVERMYRDTFSYNFYNRPILSRRNTVWLCYEVKTKGPSRPPLDAKIFRGQVYSELKYHPEMRFFHWFSKWRKLHRDQEYEVTWYISWSPCTKCTRDMATFLAEDPKVTLTIFVARLYYFWDPDYQEALRSLCQKRDGPRATMKIMNYDEIQHCWSKFVYSQRELFEPWNNLPKYYILLHIMLGEILRHSMDPPTFTFNFNNEPWVRGRHETYLCYEVERMHNDTWVLLNQRRGFLCNQAPHKHGFLEGRHAELCFLDVIPFWKLDLDQDYRVTCFTSWSPCFSCAQEMAKFISKNKHVSLCIFTARIYDDQGRCQEGLRTLAEAGAKISIMTYSEFKHCWDTFVDHQGCPFQPWDGLDEHSQDLSGRLRAILQNQEN	39 % of WT
Apobec3G-GFP MAPPIT bait (pCEL-Apobec3G-GFP), Q9HC16 R24G (protein) MKPHFRNTVERMYRDTFSYNFYNGPILSRRNTVWLCYEVKTKGPSRPPLDAKIFRGQVYSELKYHPEMRFFHWFSKWRKLHRDQEYEVTWYISWSPCTKCTRDMATFLAEDPKVTLTIFVARLYYFWDPDYQEALRSLCQKRDGPRATMKIMNYDEFQHCWSKFVYSQRELFEPWNNLPKYYILLHIMLGEILRHSMDPPTFTFNFNNEPWVRGRHETYLCYEVERMHNDTWVLLNQRRGFLCNQAPHKHGFLEGRHAELCFLDVIPFWKLDLDQDYRVTCFTSWSPCFSCAQEMAKFISKNKHVSLCIFTARIYDDQGRCQEGLRTLAEAGAKISIMTYSEFKHCWDTFVDHQGCPFQPWDGLDEHSQDLSGRLRAILQNQEN	32 % of WT
Apobec3G-GFP MAPPIT bait (pCEL-Apobec3G-GFP), Q9HC16 R238C (protein) MKPHFRNTVERMYRDTFSYNFYNRPILSRRNTVWLCYEVKTKGPSRPPLDAKIFRGQVYSELKYHPEMRFFHWFSKWRKLHRDQEYEVTWYISWSPCTKCTRDMATFLAEDPKVTLTIFVARLYYFWDPDYQEALRSLCQKRDGPRATMKIMNYDEFQHCWSKFVYSQRELFEPWNNLPKYYILLHIMLGEILRHSMDPPTFTFNFNNEPWVRGRHETYLCYEVERMHNDTWVLLNQCRGFLCNQAPHKHGFLEGRHAELCFLDVIPFWKLDLDQDYRVTCFTSWSPCFSCAQEMAKFISKNKHVSLCIFTARIYDDQGRCQEGLRTLAEAGAKISIMTYSEFKHCWDTFVDHQGCPFQPWDGLDEHSQDLSGRLRAILQNQEN	55 % of WT
Apobec3G-GFP MAPPIT bait (pCEL-Apobec3G-GFP), Q9HC16 Y222N (protein) MKPHFRNTVERMYRDTFSYNFYNRPILSRRNTVWLCYEVKTKGPSRPPLDAKIFRGQVYSELKYHPEMRFFHWFSKWRKLHRDQEYEVTWYISWSPCTKCTRDMATFLAEDPKVTLTIFVARLYYFWDPDYQEALRSLCQKRDGPRATMKIMNYDEFQHCWSKFVYSQRELFEPWNNLPKYYILLHIMLGEILRHSMDPPTFTFNFNNEPWVRGRHETYLCNEVERMHNDTWVLLNQRRGFLCNQAPHKHGFLEGRHAELCFLDVIPFWKLDLDQDYRVTCFTSWSPCFSCAQEMAKFISKNKHVSLCIFTARIYDDQGRCQEGLRTLAEAGAKISIMTYSEFKHCWDTFVDHQGCPFQPWDGLDEHSQDLSGRLRAILQNQEN	12 % of WT
Apobec3G-GFP MAPPIT bait (pCEL-Apobec3G-GFP), Q9HC16 E191V (protein) MKPHFRNTVERMYRDTFSYNFYNRPILSRRNTVWLCYEVKTKGPSRPPLDAKIFRGQVYSELKYHPEMRFFHWFSKWRKLHRDQEYEVTWYISWSPCTKCTRDMATFLAEDPKVTLTIFVARLYYFWDPDYQEALRSLCQKRDGPRATMKIMNYDEFQHCWSKFVYSQRELFEPWNNLPKYYILLHIMLGVILRHSMDPPTFTFNFNNEPWVRGRHETYLCYEVERMHNDTWVLLNQRRGFLCNQAPHKHGFLEGRHAELCFLDVIPFWKLDLDQDYRVTCFTSWSPCFSCAQEMAKFISKNKHVSLCIFTARIYDDQGRCQEGLRTLAEAGAKISIMTYSEFKHCWDTFVDHQGCPFQPWDGLDEHSQDLSGRLRAILQNQEN	41 % of WT
Apobec3G-GFP MAPPIT bait (pCEL-Apobec3G-GFP), Q9HC16 K270E (protein) MKPHFRNTVERMYRDTFSYNFYNRPILSRRNTVWLCYEVKTKGPSRPPLDAKIFRGQVYSELKYHPEMRFFHWFSKWRKLHRDQEYEVTWYISWSPCTKCTRDMATFLAEDPKVTLTIFVARLYYFWDPDYQEALRSLCQKRDGPRATMKIMNYDEFQHCWSKFVYSQRELFEPWNNLPKYYILLHIMLGEILRHSMDPPTFTFNFNNEPWVRGRHETYLCYEVERMHNDTWVLLNQRRGFLCNQAPHKHGFLEGRHAELCFLDVIPFWELDLDQDYRVTCFTSWSPCFSCAQEMAKFISKNKHVSLCIFTARIYDDQGRCQEGLRTLAEAGAKISIMTYSEFKHCWDTFVDHQGCPFQPWDGLDEHSQDLSGRLRAILQNQEN	58 % of WT
